In patent publication US20180155451A1 (published 2018):

T1: FcγRIIb extracellular domain with C-terminal His tag (human, UniProt P31994 43-217)
T1 construct: extracellular domain; also called 2b; FcgRIIb
T1 sequence (looked up): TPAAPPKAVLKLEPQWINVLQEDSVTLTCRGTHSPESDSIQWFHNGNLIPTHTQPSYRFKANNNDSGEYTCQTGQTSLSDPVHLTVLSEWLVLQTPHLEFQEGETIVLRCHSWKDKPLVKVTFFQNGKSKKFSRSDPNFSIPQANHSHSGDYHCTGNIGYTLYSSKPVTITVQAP


How the values were obtained:
[1] = target: T2, FcγRIIIa extracellular domain with C-terminal His tag (human, UniProt P08637 17-208); assay: SPR, relative to GpH7-A5/GpH7-B3/GpL16-k0
T2 construct: extracellular domain; also called 3a; FcgRIIIa
Method: (§1) The heterodimerized antibodies He Abs in which one of the H chains was introduced with an alteration were assayed for their binding activities to each activating FcγR and inhibitory FcγR according to the method described in Example 4. […] The activating FcγRs in FIGS. 26, 27, 28, and 29 are FcγRIa, FcγRIIa (R), FcγRIIa (H), and FcγRIIIa, respectively.
(§2) Analysis of interaction between objective antibody and the FcγR was carried out using Biacore T100 (GE Healthcare). HBS-EP+ (GE Healthcare) was used as the running buffer, and the measurement temperature was set to 25° C. Chips produced by immobilizing the antigen peptide by the amine coupling method to a Series S Sencor Chip CM5 (GE Healthcare), or alternatively, chips produced by allowing preliminarily biotinylated antigen peptides to interact with and immobilize onto a Series S Sensor Chip SA (certified) (GE Healthcare) were used. Antibodies of interest were captured onto an antigen peptide-immobilized chip, and allowed to interact to each FcγR diluted with running buffer. To regenerate and repeatedly use the chip, the antibodies captured on the chip were washed off by reacting 10 mM glycine-HCl, pH 1.5.

[2] = target: T1, FcγRIIb extracellular domain with …; assay: SPR, relative to GpH7-A5/GpH7-B3/GpL16-k0
Method: as §1, §2

T2 sequence (P08637 17-208): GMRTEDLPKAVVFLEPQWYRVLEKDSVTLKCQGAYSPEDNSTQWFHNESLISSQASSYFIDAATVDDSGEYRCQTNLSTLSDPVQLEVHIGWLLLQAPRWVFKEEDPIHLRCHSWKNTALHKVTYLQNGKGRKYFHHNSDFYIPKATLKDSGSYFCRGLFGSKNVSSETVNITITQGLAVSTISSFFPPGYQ

Row | Binder | He/Con_3a [1] | He/Con_2b [2]
1 | GpH7-A5/GpH7-B3 variant A330_08L/GpL16-k0 (antibody, human IgG1, kappa, He Ab: alteration in one H chain only; also called He Ab) heavy 1: not shown heavy 2: not shown light: DIVMTQSPLSLPVTPGEPASISCQASESLVHSNRNTYLHWYLQKPGQSPQLLIYKVSNRFSGVPDRFSGSGSGTDFTLKISRVEAEDVGVYYCSQNTHVPPTFGQGTKVEIERTVAAPSVFIFPPSDEQLKSGTASVVCLLNNFYPREAKVQWKVDNALQSGNSQESVTEQDSKDSTYSLSSTLTLSKADYEKHKVYACEVTHQGLSSPVTKSFNRGEC | 124 control=100 | 70.5 control=100
2 | GpH7-A5/GpH7-B3 variant E333_04F/GpL16-k0 (antibody, human IgG1, kappa, He Ab: alteration in one H chain only; also called He Ab) heavy 1: not shown heavy 2: not shown light: DIVMTQSPLSLPVTPGEPASISCQASESLVHSNRNTYLHWYLQKPGQSPQLLIYKVSNRFSGVPDRFSGSGSGTDFTLKISRVEAEDVGVYYCSQNTHVPPTFGQGTKVEIERTVAAPSVFIFPPSDEQLKSGTASVVCLLNNFYPREAKVQWKVDNALQSGNSQESVTEQDSKDSTYSLSSTLTLSKADYEKHKVYACEVTHQGLSSPVTKSFNRGEC | 101 control=100 | 94.6 control=100
3 | GpH7-A5/GpH7-B3 variant D270_10E/GpL16-k0 (antibody, human IgG1, kappa, He Ab: alteration in one H chain only; also called He Ab) heavy 1: not shown heavy 2: not shown light: DIVMTQSPLSLPVTPGEPASISCQASESLVHSNRNTYLHWYLQKPGQSPQLLIYKVSNRFSGVPDRFSGSGSGTDFTLKISRVEAEDVGVYYCSQNTHVPPTFGQGTKVEIERTVAAPSVFIFPPSDEQLKSGTASVVCLLNNFYPREAKVQWKVDNALQSGNSQESVTEQDSKDSTYSLSSTLTLSKADYEKHKVYACEVTHQGLSSPVTKSFNRGEC | 123 control=100 | 76.5 control=100
4 | GpH7-A5/GpH7-B3 variant E333_20W/GpL16-k0 (antibody, human IgG1, kappa, He Ab: alteration in one H chain only; also called He Ab) heavy 1: not shown heavy 2: not shown light: DIVMTQSPLSLPVTPGEPASISCQASESLVHSNRNTYLHWYLQKPGQSPQLLIYKVSNRFSGVPDRFSGSGSGTDFTLKISRVEAEDVGVYYCSQNTHVPPTFGQGTKVEIERTVAAPSVFIFPPSDEQLKSGTASVVCLLNNFYPREAKVQWKVDNALQSGNSQESVTEQDSKDSTYSLSSTLTLSKADYEKHKVYACEVTHQGLSSPVTKSFNRGEC | 101 control=100 | 89.5 control=100
5 | GpH7-A5/GpH7-B3 variant E333_09D/GpL16-k0 (antibody, human IgG1, kappa, He Ab: alteration in one H chain only; also called He Ab) heavy 1: not shown heavy 2: not shown light: DIVMTQSPLSLPVTPGEPASISCQASESLVHSNRNTYLHWYLQKPGQSPQLLIYKVSNRFSGVPDRFSGSGSGTDFTLKISRVEAEDVGVYYCSQNTHVPPTFGQGTKVEIERTVAAPSVFIFPPSDEQLKSGTASVVCLLNNFYPREAKVQWKVDNALQSGNSQESVTEQDSKDSTYSLSSTLTLSKADYEKHKVYACEVTHQGLSSPVTKSFNRGEC | 112 control=100 | 94.3 control=100
6 | GpH7-A5/GpH7-B3 variant A330_15Y/GpL16-k0 (antibody, human IgG1, kappa, He Ab: alteration in one H chain only; also called He Ab) heavy 1: not shown heavy 2: not shown light: DIVMTQSPLSLPVTPGEPASISCQASESLVHSNRNTYLHWYLQKPGQSPQLLIYKVSNRFSGVPDRFSGSGSGTDFTLKISRVEAEDVGVYYCSQNTHVPPTFGQGTKVEIERTVAAPSVFIFPPSDEQLKSGTASVVCLLNNFYPREAKVQWKVDNALQSGNSQESVTEQDSKDSTYSLSSTLTLSKADYEKHKVYACEVTHQGLSSPVTKSFNRGEC | 125 control=100 | 95 control=100

Now from value to binder:

Row | He/Con_3a [1] | He/Con_2b [2] | Binder
7 | 100 control=100 | 94.8 control=100 | GpH7-A5/GpH7-B3 variant Q295_10E/GpL16-k0 (antibody, human IgG1, kappa, He Ab: alteration in one H chain only; also called He Ab) heavy 1: not shown heavy 2: not shown light: DIVMTQSPLSLPVTPGEPASISCQASESLVHSNRNTYLHWYLQKPGQSPQLLIYKVSNRFSGVPDRFSGSGSGTDFTLKISRVEAEDVGVYYCSQNTHVPPTFGQGTKVEIERTVAAPSVFIFPPSDEQLKSGTASVVCLLNNFYPREAKVQWKVDNALQSGNSQESVTEQDSKDSTYSLSSTLTLSKADYEKHKVYACEVTHQGLSSPVTKSFNRGEC
8 | 110 control=100 | 94.3 control=100 | GpH7-A5/GpH7-B3 variant I332_19Q/GpL16-k0 (antibody, human IgG1, kappa, He Ab: alteration in one H chain only; also called He Ab) heavy 1: not shown heavy 2: not shown light: DIVMTQSPLSLPVTPGEPASISCQASESLVHSNRNTYLHWYLQKPGQSPQLLIYKVSNRFSGVPDRFSGSGSGTDFTLKISRVEAEDVGVYYCSQNTHVPPTFGQGTKVEIERTVAAPSVFIFPPSDEQLKSGTASVVCLLNNFYPREAKVQWKVDNALQSGNSQESVTEQDSKDSTYSLSSTLTLSKADYEKHKVYACEVTHQGLSSPVTKSFNRGEC
9 | 115 control=100 | 66.8 control=100 | GpH7-A5/GpH7-B3 variant Q295_14T/GpL16-k0 (antibody, human IgG1, kappa, He Ab: alteration in one H chain only; also called He Ab) heavy 1: not shown heavy 2: not shown light: DIVMTQSPLSLPVTPGEPASISCQASESLVHSNRNTYLHWYLQKPGQSPQLLIYKVSNRFSGVPDRFSGSGSGTDFTLKISRVEAEDVGVYYCSQNTHVPPTFGQGTKVEIERTVAAPSVFIFPPSDEQLKSGTASVVCLLNNFYPREAKVQWKVDNALQSGNSQESVTEQDSKDSTYSLSSTLTLSKADYEKHKVYACEVTHQGLSSPVTKSFNRGEC
